Series [1] relates to Mammalian P450. The conditions noted are these: cited from earlier work.
Series [2] can be described thus: Peroxidase activity with ABTS and H2O2. In kind it is biochemical. The note with it: for peroxidase activity relative to parents: ABTS; for Peroxidase activity: 10 mM ABTS, 20 mM H2O2, pH 5.0, activities <0.2 not detectable (N.D.). The text has this:
P450s can reduce peroxide to water (and a proton) using a mechanism similar to that of peroxidases, although the intrinsic rate for P450s is many orders of magnitude slower. (Mansuy, D., Comp Biochem Physiol C Pharmacol Toxicol Endocrinol 121, 5-14 (1998)). It has been proposed that the earliest P450 function may have been as a peroxidase. (Gotoh, O., Cytochrome P450, 2nd Edition, pp. 255-272 (1993)). To investigate how recombination affects P450 peroxidase activity, the colorimetric substrate 2,2′-azino-bis(3-ethylbenzothiazoline-6-sulfonate) (ABTS) was used to monitor this reaction (Childs et al., Biochem J 145,93-103 (1975)).
This example provides an example of how one can measure peroxidase activity. Initial rates of peroxidase activity were measured by monitoring the accumulation of the radical cation of ABTS at 414 nm (Childs et al., Biochem J., 145:93-103 (1975)). Enzyme (1 μM) was mixed with 10 mM ABTS in 200 mM phosphate buffer (pH 5.0) in a cuvette at room temperature. Samples were zeroed and reactions were initiated with the addition of H2O2 to a concentration of 20 mM. The absorbance at 414 nm was monitored for 5 minutes. Rates were determined from the steepest portion of the time course. An extinction coefficient of […] for ABTS was used.

A short description of series [3]: Thermostability (loss of Soret band at increasing temperatures). In kind it is physicochemical. The note with it: cell extracts heated 10 minutes. As to the method:
Thermostability was assayed by monitoring the loss of the Soret band at increasing temperatures. […] However, thermostability may be important for retention of catalytic activity: the two chimeras that lacked peroxygenase activity were also the least thermostable.
Cell extracts were heated in a thermocycler for 10 minutes at various temperatures, followed by cooling to 4° C. Extracts were centrifuged for 5 minutes at 3500×g to remove any precipitates. Carbon monoxide reduced difference spectroscopy was used to quantitate the amount of P450. The reduction of the carbon monoxide peak was monitored over a range of temperatures.

The nature of series [4]: Peroxygenase substrate activity profile. The note with it: 20 mM H2O2. Type of series: biochemical. Here is the method:
The chimeras were assayed for hydroxylation of p-nitrophenoxydodecanoic acid (12-pNCA), a fatty acid analog that is hydroxylated by CYP102A1 and CYP102A2 to yield p-nitrophenolate (Schwaneberg et al., Anal Biochem 269,359-366 (1999)). […] When hydroxylation rates for the parent CYP102 enzymes were monitored using the maximum soluble concentrations of these substrates, activity could only be detected on 2-phenoxy-ethanol.
Chimeras were assayed for peroxygenase activity on 12-pNCA, 2-phenoxy -ethanol and allyloxy-benzene. […] Rates are reported in nmol product/nmol P450/minute. […] Those with no activity include 65-256 and 277-365. Those with new activity include 165-256, 191-335, and 43-135.
This Example provides one method by which peroxygenase activity of a P450 enzyme may be characterized. First order rates for p-nitrophenolate accumulation were determined using 1 μM enzyme, 20 mM H2O2, 250 μM 12-pNCA and 0.5% dimethyl sulfoxide (DMSO) in 100 mM Tris-HCl (pH 8.2) at room temperature. Enzyme, substrate, buffer and DMSO were combined in a cuvette and zeroed at 410 nm. Reaction mixtures were incubated for 4 minutes and initiated by the addition of H2O2 to a final concentration of 20 mM. Initial rates were determined by monitoring the accumulation of p-nitrophenolate at 410 nm, and data from the first six seconds were used to determine initial rates. […] The extinction coefficient of p-nitrophenolate is 13,200 M^−1cm^−1 (Schwaneberg et al., Anal Biochem 269:359-366 (1999)).
Rates on 2-phenoxy-ethanol and allyloxy-benzene were determined using 2 μM enzyme, 20 mM H2O2, 1% DMSO, and 1% acetone in 100 mM N-[2-hydroxyethyl]piperazine-N′-[3-propanesulfonic acid] (Epps) (pH 8.2) at room temperature. Substrate concentrations for 2-phenoxy-ethanol (100 mM) and allyloxy benzene (50 mM) maintained saturation. Reactions were initiated by the addition of H2O2 and quenched at appropriate times using an equal volume of a solution containing 4M urea and 100 mM NaOH. 120 μl of 0.6% 4-AAP was added, followed by mixing and addition of 120 μl of 0.6% potassium persulfate. Color was allowed to develop for 20 minutes before absorbance was read at 500 nm. Rates were determined from the linear region of the time course. The major products were determined by GC/MS to be the hemiacetal, which decomposes to phenol. The extinction coefficient for the 4-AAP/phenol complex was determined to be 4,800 M^−1cm^−1. The results can be seen in FIG. 4.

The values that follow come from patent US8603949B2, “Libraries of optimized cytochrome P450 enzymes and the optimized P450 enzymes” (California Institute of Technology, priority 2003, dated 2013).

Counter-ions that a name gives are not always drawn.

With `Nc1ccc(-c2ccccc2)cc1` [4-aminobiphenyl], in series [1], the “Mammalian P450 (main mammalian P450 responsible for breakdown)” value (from here on “Mammalian P450”) was “CYP1A2”.

Turning to `O=C(O)Cc1ccccc1Nc1c(Cl)cccc1Cl` [Diclofenac], the “Mammalian P450” value in series [1] was “CYP2C9”.

On to `Nc1c2c(nc3ccccc13)CCCC2` [Tacrine, 9-amino-1,2,3,4-tetrahydroacridine hydrochloride hydrate], for which the “Mammalian P450” value in series [1] was “CYP1A2”.

As to `CCCCNC(=O)NS(=O)(=O)c1ccc(C)cc1` [Tolbutamide], the “Mammalian P450” value in series [1] is listed as “CYP2C9”.

Turning to `COc1ccc(C(c2ccc(OC)cc2)C(Cl)(Cl)Cl)cc1` [methoxychlor], in series [1], the “Mammalian P450” value is “CYP2B6”.

B1: Chimera 277-365: CYP102A1 heme domain with residues 277-365 from CYP102A2 (protein)
chain: TIKEMPQPKTFGELKNLPLLNTDKPVQALMKIADELGEIFKFEAPGRVTRYLSSQRLIKEACDESRFDKNLSQALKFVRDFAGDGLATSWTHEKNWKKAHNILLPSFSQQAMKGYHAMMVDIAVQLVQKWERLNADEHIEVPEDMTRLTLDTIGLCGFNYRFNSFYRDQPHPFITSMVRALDEAMNKLQRANPDDPAYDENKRQFQEDIKVMNDLVDKIIADRKASGEQSDDLLTHMLNGKDPETGEPLDDENIRYQIITFLIAGHETTSGLLSFATYFLLKHPDKLKKAYEEVDRVLTDAAPTYKQVLELTYIRMILNESLRLWPTAPAFSLYPKEDTVIGGKFPITTNDRISVLIPQLHRDRDIWGDDVEEFRPERFENPSAIPQHAFKPFGNGQRACIGQQFALHEATLVLGMMLKHFDFEDHTNYELDIKETLTLKPEGFVVKAKSKKIPLGGIPSPST
modifications: Chimeric Cytochrome P450 heme group sequence from Bacillus megaterium and Bacillus subtilis
notes: CYP102A1 heme domain with residues 277-365 from CYP102A2
As to B1, the “peroxidase activity relative to parents” value in series [2] is reported as “no detectable peroxidase activity”. Further, in series [3], the Tm was found to be 39 °C. The “substrate activity profile relative to parents” value in series [4] is “no activity”.

B2: Chimera 118-194: CYP102A1 heme domain with residues 118-194 from CYP102A2 (protein)
chain: TIKEMPQPKTFGELKNLPLLNTDKPVQALMKIADELGEIFKFEAPGRVTRYLSSQRLIKEACDESRFDKNLSQALKFVRDFAGDGLATSWTHEKNWKKAHNILLPSFSQQAMKGYHAKMVDIAVQLIQKWARLNPNEAVDVPGDMTRLTLDTIGLCGFNYRFNSYYRETPHPFINSMVRALDEAMHQMQRLDVQDPAYDENKRQFQEDIKVMNDLVDKIIADRKASGEQSDDLLTHMLNGKDPETGEPLDDENIRYQIITFLIAGHETTSGLLSFALYFLVKNPHVLQKAAEEAARVLVDPVPSYKQVKQLKYVGMVLNEALRLWPTAPAFSLYAKEDTVLGGEYPLEKGDELMVLIPQLHRDKTIWGDDVEEFRPERFENPSAIPQHAFKPFGNGQRACIGQQFALHEATLVLGMMLKHFDFEDHTNYELDIKETLTLKPEGFVVKAKSKKIPLGGIPSPST
modifications: Chimeric Cytochrome P450 heme group sequence from Bacillus megaterium and Bacillus subtilis
notes: CYP102A1 heme domain with residues 118-194 from CYP102A2
As to B2, in series [2], the Peroxidase activity is given as 34.3 nmol product/nmol P450/min and the “peroxidase activity relative to parents” value is listed as “significantly higher peroxidase activities”. The Tm in series [3] was found to be 47 °C. Moreover, the “substrate activity profile relative to parents” value in series [4] is recorded as “parent-like profiles”.

B3: Chimera 285-341: CYP102A1 heme domain with residues 285-341 from CYP102A2 (protein)
chain: TIKEMPQPKTFGELKNLPLLNTDKPVQALMKIADELGEIFKFEAPGRVTRYLSSQRLIKEACDESRFDKNLSQALKFVRDFAGDGLATSWTHEKNWKKAHNILLPSFSQQAMKGYHAMMVDIAVQLVQKWERLNADEHIEVPEDMTRLTLDTIGLCGFNYRFNSFYRDQPHPFITSMVRALDEAMNKLQRANPDDPAYDENKRQFQEDIKVMNDLVDKIIADRKASGEQSDDLLTHMLNGKDPETGEPLDDENIRYQIITFLIAGHETTSGLLSFALYFLVKNPDKLKKAYEEVDRVLTDAAPTYKQVLELTYIRMILNESLRLWPTAPAFSLYPKEDTVIGGEYPLEKGDELMVLIPQLHRDKTIWGDDVEEFRPERFENPSAIPQHAFKPFGNGQRACIGQQFALHEATLVLGMMLKHFDFEDHTNYELDIKETLTLKPEGFVVKAKSKKIPLGGIPSPST
modifications: Chimeric Cytochrome P450 heme group sequence from Bacillus megaterium and Bacillus subtilis
notes: CYP102A1 heme domain with residues 285-341 from CYP102A2
With B3, the Peroxidase activity in series [2] is 2.1 nmol product/nmol P450/min. Besides, the Tm in series [3] stood at 53 °C. Further, the “substrate activity profile relative to parents” value in series [4] is “parent-like profiles”.

B4: Chimera 50-140: CYP102A1 heme domain with residues 50-140 from CYP102A2 (protein)
chain: TIKEMPQPKTFGELKNLPLLNTDKPVQALMKIADELGEIFKFEAPGRVTIVVSGHELVKEVCDEERFDKSIEGALEKVRAFSGDGLATSWTHEPNWRKAHNILMPTFSQRAMKDYHEKMVDIAVQLIQKWARLNPNEAVDVPEDMTRLTLDTIGLCGFNYRFNSFYRDQPHPFITSMVRALDEAMNKLQRANPDDPAYDENKRQFQEDIKVMNDLVDKIIADRKASGEQSDDLLTHMLNGKDPETGEPLDDENIRYQIITFLIAGHETTSGLLSFALYFLVKNPHVLQKAAEEAARVLVDPVPSYKQVKQLKYVGMVLNEALRLWPTAPAFSLYAKEDTVLGGEYPLEKGDELMVLIPQLHRDKTIWGDDVEEFRPERFENPSAIPQHAFKPFGNGQRACIGQQFALHEATLVLGMMLKHFDFEDHTNYELDIKETLTLKPEGFVVKAKSKKIPLGGIPSPST
modifications: Chimeric Cytochrome P450 heme group sequence from Bacillus megaterium and Bacillus subtilis
notes: CYP102A1 heme domain with residues 50-140 from CYP102A2
Turning to B4, in series [2], the Peroxidase activity was 10.4 nmol product/nmol P450/min and the “peroxidase activity relative to parents” value is listed as “significantly higher peroxidase activities”. For the same molecule, the Tm in series [3] was determined as 52 °C. In addition, the “substrate activity profile relative to parents” value in series [4] is on record as “parent-like profiles”.

B5: Chimera 65-256: CYP102A1 heme domain with residues 65-256 from CYP102A2 (protein)
chain: TIKEMPQPKTFGELKNLPLLNTDKPVQALMKIADELGEIFKFEAPGRVTRYLSSQRLIKEACDEERFDKSIEGALEKVRAFSGDGLATSWTHEPNWRKAHNILMPTFSQRAMKDYHEKMVDIAVQLIQKWARLNPNEAVDVPGDMTRLTLDTIGLCGFNYRFNSYYRETPHPFINSMVRALDEAMHQMQRLDVQDKLMVRTKRQFRYDIQTMFSLVDSIIAERRANGDQDEKDLLARMLNVEDPETGEKLDDENIRFQIITFLIAGHETTSGLLSFALYFLVKNPHVLQKAAEEAARVLVDPVPSYKQVKQLKYVGMVLNEALRLWPTAPAFSLYAKEDTVLGGEYPLEKGDELMVLIPQLHRDKTIWGDDVEEFRPERFENPSAIPQHAFKPFGNGQRACIGQQFALHEATLVLGMMLKHFDFEDHTNYELDIKETLTLKPEGFVVKAKSKKIPLGGIPSPST
modifications: Chimeric Cytochrome P450 heme group sequence from Bacillus megaterium and Bacillus subtilis
notes: CYP102A1 heme domain with residues 65-256 from CYP102A2
In the case of B5, the “peroxidase activity relative to parents” value in series [2] was “no detectable peroxidase activity”. The Tm in series [3] came out at 36 °C. The “substrate activity profile relative to parents” value in series [4] is listed as “no activity”.
